Experimental findings from US7364887B2, “Use of PAK inhibitor for the treatment of a joint disease” (Sanofi-Aventis Deutschland GmbH, priority 2003, dated 2008) are described below.

Assay type in all cases: cell-based, human
Assay [1] concerns IL-1β induced expression of IL-8 in HEK293 cells. In words: IL-8 protein in supernatants by ELISA after transient transfection of PAK1-ID in HEK293 cells. The following applies: HEK293 cells transiently transfected with pCDNA3.1_PAK1-ID vs void vector; IL-1β 10 ng/ml, time course; ELISA of supernatant. As for the experimental part: The PAK1 inhibitory domain subcloned into the pCDNA3.1 vector was transiently transfected into HEK293 cells. Cells were stimulated with IL-1β at a concentration of 10 ng/ml for the indicated time periods. Supernatants were collected and the amount of IL-8 protein was determined by ELISA. Values in arbitrary units represent the mean of two experiments. The circles represents the experiments with the vector pCDNA3.1_PAK1-ID plus IL-1β and the squares represent the experiments with the vector pCDNA3.1 (void vector) plus IL-1β.
(§1) (Kozak sequence is underlined, hemagglutinin (HA) tag is in bold) and 5′-[…]-3′(SEQ ID NO: 12) (MWG, Biotech AG, Germany). […]
Human embryonic kidney (HEK) 293 were maintained in Dulbecco's modified Eagle's medium supplemented with 10% fetal calf serum. […] Culture supernatant were removed and expression of IL-8 (R&D Systems, Inc., Minneapolis, Minn., U.S.A.), PGE2 (SpiBiom Inc.), and MMP-13 (Amersham Pharmacia Biotech, Inc.) was monitored by ELISA according to the procedure supplied by the manufacturer.
For the analysis of MMP13, IL-8 and PGE2 protein levels, supernatants of cell cultures were determined by ELISA for MMP13 (Amersham Pharmacia Biotech, Inc.), IL-8 (R&D Systems, Inc. Minneapolis, Minn., U.S.A.) and PGE2 (SpiBio) as described by the supplier. […]

Assay [2] deals with IL-1β induced expression of MMP13 in SW1353 cells. Kind of assay: MMP13 protein in supernatants by ELISA after overexpression of PAK1-ID in SW1353 cells. The note with it: SW1353 cells transfected with pCEP4_PAK1-ID vs void vector, ELISA of supernatant. As for the experimental part: The PAK1 inhibitory domain was subcloned into the pCEP4 vector and transfected into SW1353 cells. Where indicated, IL-1β was used as a stimulus at a concentration of 10 ng/ml for 24 h. Supernatants were collected and the amount of MMP13 protein was determined by ELISA. Values are shown in arbitrary units and represent at least 3 independent results ±SD. The chequered column represents the experiments with the vector pCEP4 (void vector) and the black column represents the experiments with the vector pCEP4_PAK1-ID.
as §1
(§2) Cultures of human SW1353 chondrosarcoma were grown in Dulbecco's modified Eagles's medium (DMEM) containing 10% fetal calf serum (FCS) and penicillin/streptomycin (37° C., 5% CO2). […] The transfection efficiency was examined with a FACScan (Becton Dickinson Immunocytometry Systems, Inc., Mountain View, Calif., U.S.A.) and on an inverted fluorescence microscope. […]
(§3) Human embryonic kidney (HEK) 293 were maintained in Dulbecco's modified Eagle's medium supplemented with 10% fetal calf serum. […] Culture supernatant were removed and expression of IL-8 (R&D Systems, Inc., Minneapolis, Minn., U.S.A.), PGE2 (SpiBiom Inc.), and MMP-13 (Amersham Pharmacia Biotech, Inc.) was monitored by ELISA according to the procedure supplied by the manufacturer. […]
(ELISA stands for enzyme-linked immunosorbent assay.)

The subject of assay [3] is IL-1β induced expression of PGE2 in SW1353 cells. Kind of assay: PGE2 in supernatants by ELISA after overexpression of PAK1-ID in SW1353 cells. The following applies: SW1353 cells transfected with pCEP4_PAK1-ID vs void vector; IL-1β and TNFα both 10 ng/ml for 24 h; ELISA of supernatant. As for the experimental part: The PAK1 inhibitory domain was subcloned into the pCEP4 vector and transfected into SW1353 cells. Cells were stimulated with a combination of IL-1β and TNFα both at a concentration of 10 ng/ml for 24 h. Supernatants were collected and the amount of MMP13 protein was determined by ELISA. Values in arbitrary units represent the mean of two experiments. The punctured column represents the experiments with no vector plus IL1β and TNFα. The chequered column represents the experiments with the vector pCEP4 (void vector) plus IL1β and TNFα. The black column represents the experiments with the vector pCEP4_PAK1-ID plus IL1β and TNFα. […]
as §2, §3

B1: PAK1-ID: Autoinhibitory domain of PAK1, residues 83 to 149 (SEQ ID NO: 6), HA-tagged, overexpressed from pCEP4 or pcDNA3.1 vector in cells (protein, listed as Homo sapiens)
chain: HTIHVGFDAVTGEFTGMPEQWARLLQTSNITKSEQKKNPQAVLDVLEFYNSKKTSNSQKYMSFTDKS
modifications: HA tag
Regarding B1, the “effect on IL-1β induced expression of IL-8” value in assay [1] is given as “represses the IL-1β induced expression of IL-8”. Besides, the “inhibition of the IL-1β-induced expression of MMP13” value in assay [2] (IL-1β 10 ng/ml for 24 h) was ~55%. Also, the “inhibition of basal MMP13 secretion in non-stimulated cells” value in assay [2] (non-stimulated (no IL-1β)) is given as > 80%. Besides, the “inhibition of IL-1β induced expression of PGE2” value in assay [3] was “more than 50%”.
